Results reported in paper PMC4532127.

Target: TSH receptor (solubilized porcine thyroid membrane) (porcine (endogenous in thyroid membrane)) (UniProt Q8SPP9)
Experiment: radioligand binding

Chain of UniProt Q8SPP9 (Q8SPP9 22-764): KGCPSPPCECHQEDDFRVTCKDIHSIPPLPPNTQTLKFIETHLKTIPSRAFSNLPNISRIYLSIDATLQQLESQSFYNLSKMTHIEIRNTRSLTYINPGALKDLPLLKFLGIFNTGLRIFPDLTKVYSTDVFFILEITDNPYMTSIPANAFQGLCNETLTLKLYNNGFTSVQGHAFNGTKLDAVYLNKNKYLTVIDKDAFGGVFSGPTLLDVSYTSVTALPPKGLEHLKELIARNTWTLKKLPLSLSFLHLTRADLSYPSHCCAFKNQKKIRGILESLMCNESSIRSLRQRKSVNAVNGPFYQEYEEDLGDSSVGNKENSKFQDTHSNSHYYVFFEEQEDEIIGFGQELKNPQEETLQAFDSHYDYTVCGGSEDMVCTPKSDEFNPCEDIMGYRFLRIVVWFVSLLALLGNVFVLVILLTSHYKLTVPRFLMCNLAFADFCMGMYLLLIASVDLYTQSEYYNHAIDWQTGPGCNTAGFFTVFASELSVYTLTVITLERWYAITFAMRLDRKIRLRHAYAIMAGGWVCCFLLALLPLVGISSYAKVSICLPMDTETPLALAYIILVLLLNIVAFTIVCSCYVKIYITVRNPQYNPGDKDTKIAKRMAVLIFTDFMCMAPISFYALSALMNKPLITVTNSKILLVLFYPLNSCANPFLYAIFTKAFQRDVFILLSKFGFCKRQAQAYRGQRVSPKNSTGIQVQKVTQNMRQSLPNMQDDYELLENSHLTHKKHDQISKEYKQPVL

Work on “125I-labelled bTSH (bovine thyroid-stimulating hormone) (from UniProt P01217 25-120; P01223 21-132) (ligand)” yielded a cpm of bound 125I-bTSH (TSH receptor present, heat-treated normal pooled IgG) of 6950 cpm, a cpm of bound 125I-bTSH (TSH receptor present, normal pooled IgG) of 7810 cpm and a cpm of bound 125I-bTSH, T B (Bo) of 7000 cpm.
